Key:
TLR4 = TLR4 (Homo sapiens, UniProt O00206); details: literature; cited from earlier work
MD2 = biological target: T1, MD2 (Homo sapiens, UniProt Q9Y6Y9); details: literature; read-out: KD, binding to MD2; cited from earlier work
T1 sequence (Q9Y6Y9 19-160): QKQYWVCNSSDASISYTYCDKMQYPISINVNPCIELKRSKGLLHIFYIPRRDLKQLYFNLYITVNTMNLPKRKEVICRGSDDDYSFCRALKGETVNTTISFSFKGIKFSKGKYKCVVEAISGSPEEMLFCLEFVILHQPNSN

TLR4/MD2 complex = TLR4/MD2 complex (Homo sapiens, UniProt O00206+Q9Y6Y9); details: SPR, literature; read-out: KD, binding to TLR4/MD2 complex; cited from earlier work
[1] = system: LPS-induced TNF-α release, RAW 264.7 cells; assay: Polymyxin B on LPS-induced TNF-α release from RAW 264.7 cells; type: cell-based, murine; details: PMB 120 U/ml, LPS 10 ng/ml, 8 hours
Experimental: (§1) Murine macrophage-like RAW 264.7 cells were obtained from ATCC (American Type Culture Collection, Manassas, Va.), and were grown in Dulbecco's Modified Eagle's Medium (DMEM, Life Technologies, Grand Island, N.Y.) containing 10% (vol/vol) FBS (heat-inactivated at 56° C. for 30 min), 100 U/ml penicillin, 100 μg/ml streptomycin and 2 mM glutamine. Cells were re-suspended in medium and incubated in 6 or 48-well tissue-culture plates overnight in a humidified incubator (37° C., 5% CO2). In the experiments, cell monolayers were stimulated with or without recombinant CIRP at various indicated concentrations and for various indicated times. The cell-free supernatants were assayed for TNF-α by ELISA or for HMGB1 by western blot analysis.
(§2) To conduct this experiment, rmCIRP (1.5 μg/ml or LPS (10 ng/ml) was treated with polymyxin B (PMB, 120 U/ml) or heated at 80° C. for 30 min before being added to RAW 264.7 cells for 8 hours. *P<0.05 vs. rmCIRP; #P<0.05 vs. LPS.

[2] = system: rmCIRP-induced TNF-α production, RAW 264.7 cells; assay: Polymyxin B on rmCIRP-induced TNF-α production in RAW 264.7 cells; type: cell-based, murine; details: PMB 120 U/ml, rmCIRP 1.5 μg/ml, 8 hours
Experimental: as §1, §2

THP-1 cells = assay: TNF-α release from differentiated THP-1 cells stimulated with recombinant proteins; type: cell-based, human; details: 4 h
Experimental: As with the murine model, the stimulation of TNF-α, release by rCIRP in a human model was studied. […] These experiments were conducted by incubating differentiated human THP-1 cells with rhCIRP or rmCIRP at the indicated concentrations for 4 h. *P<0.05 vs. no CIRP. Similarly, human PBMC were incubated with the indicated concentrations of rhCIRP for 8 h. *P<0.05 vs. no rhCIRP. Thus, stimulation of cytokine release by CIRP was not attributable to LPS contamination. Furthermore, CIRP-induced cytokine activation was conserved between rodents and humans.
rmCIRP induced TNF-α and HMGB1 release in macrophages (FIGS. 10a, b and c). It was reported that HMGB1 can also stimulate TNF-α release (Andersson, U., et al. High mobility group 1 protein (HMG-1) stimulates proinflammatory cytokine synthesis in human monocytes. J. Exp. Med. 192, 565-570 (2000)). The relationship between CIRP and HMGB1 on stimulating TNF-α release was analyzed by applying respective neutralizing antibodies. […] After 4 h, TNF-α levels in conditioned medium (CM) were assayed by ELISA. Data are mean±s.e.m. from three independent experiments. *P<0.05 vs. rmCIRP+ control IgG. In FIG. 16D, RAW 264.7 cells were pre-incubated with rabbit control IgG or anti-CIRP antibodies at indicated dilutions of 1 mg/ml for 20 min before adding 1.0 μg/ml rmCIRP. After 4 h, TNF-α levels in CM were assayed by ELISA. Data are mean±s.e.m. from three independent experiments. *P<0.05 vs. rmCIRP+ control IgG. THP-1 cells were incubated with 4 μg/ml of anti-CIRP antibodies, anti-HMGB1 antibodies, or non-immunized control IgG for 1 h prior to adding rmCIRP (0.3 μg/ml), rmHMGB1 (0.3 μg/ml), or rmCIRP/rmHMGB1 (0.3 μg/ml, 0.3 μg/ml) for 8 h. *P<0.05 vs. rmCIRP; #P<0.05 vs. rmHMGB1. […] Furthermore, rmCIRP, rmHMGB1, and rmCIRP plus rmHMGB1 induced TNF-α levels of 0.8, 0.6, and 1.6 ng/ml, respectively. […] TNF-α levels in all collected CM were assayed by ELISA. Data are mean±s.e.m. from three or four independent experiments.
Murine macrophage-like RAW 264.7 cells and human monocyte THP-1 cells were obtained from ATCC (Manassas, Va.). […]

RAGE = biological target: T2, RAGE (Homo sapiens, UniProt Q15109); assay: SPR binding to RAGE
T2 construct: Ala23-Ala344); 6-His (C); purchased Biovision; host or cells: human HEK293 cells
Experimental: (§3) Analysis of protein-protein and peptide-protein interactions were conducted using the BIAcore T200 instrument (GE Healthcare). Binding reactions were performed in 1×PBS buffer containing 0.01% Tween-20 (pH 7.4). The CM5 dextran chip (flow cell-2) was first activated by injection with 89 μl of 0.1 M […] and 0.1 M N-hydroxysuccinimide. An aliquot of 200 μl of 5 μg/ml of the ligand diluted in 10 mM sodium acetate (pH 4.5) was injected into flow cell-2 of the CM5 chip for immobilization. Next, 135 μl of 1 M ethanolamine (pH 8.2) was then injected to block the remaining active sites. The flow cell-1 without coating with the ligand was used as a control to evaluate nonspecific binding. […] To evaluate the binding, the analyte (ranging from 62.5 nM to 1.0 μM for kinetics analysis or 0.5 μM for yes/no binding analysis) was injected into flow cell-1 and -2 and the association of analyte and ligand was recorded respectively by surface plasmon resonance. […] Data were analyzed by the BIAcore T200 Evaluation Software. […]
(§4) Surface plasmon resonance (SPR) analysis was utilized to determine the physical interaction and binding affinity between rhCIRP and pattern-recognition receptors and MD2. […] The region of CIRP that binds to MD2 was determined via the synthesis of 32 oligopeptides (15-mer) covering the entire human CIRP sequence. […]

rhMD2 = biological target: T3, rhMD2 (Homo sapiens, UniProt Q9Y6Y9); assay: SPR binding to immobilized rhMD2; details: kinetic analysis, 25° C., read-out: apparent KD, binding to rhMD2
T3 construct: Glu17-Asn160); 10-His (C); purchased R&D Systems; host or cells: E. coli
T3 sequence (Q9Y6Y9 17-160): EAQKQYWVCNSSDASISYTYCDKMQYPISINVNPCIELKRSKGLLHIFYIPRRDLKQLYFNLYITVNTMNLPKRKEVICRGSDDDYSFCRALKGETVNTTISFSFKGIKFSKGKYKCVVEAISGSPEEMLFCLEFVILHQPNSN
Experimental: Analysis of protein-protein and peptide-protein interactions were conducted using the BIAcore T200 instrument (GE Healthcare). Binding reactions were performed in 1×PBS buffer containing 0.01% Tween-20 (pH 7.4). The CM5 dextran chip (flow cell-2) was first activated by injection with 89 μl of 0.1 M […] and 0.1 M N-hydroxysuccinimide. An aliquot of 200 μl of 5 μg/ml of the ligand diluted in 10 mM sodium acetate (pH 4.5) was injected into flow cell-2 of the CM5 chip for immobilization. Next, 135 μl of 1 M ethanolamine (pH 8.2) was then injected to block the remaining active sites. The flow cell-1 without coating with the ligand was used as a control to evaluate nonspecific binding. The binding analyses were performed at flow rate of 30 μl/min at 25° C. To evaluate the binding, the analyte (ranging from 62.5 nM to 1.0 μM for kinetics analysis or 0.5 μM for yes/no binding analysis) was injected into flow cell-1 and -2 and the association of analyte and ligand was recorded respectively by surface plasmon resonance. The signal from the blank channel (flow cell-1) was subtracted from the channel (flow-cell 2) coated with the ligand. Data were analyzed by the BIAcore T200 Evaluation Software. For all samples, a blank injection with buffer alone was subtracted from the resulting reaction surface data. Data were globally fitted to the Lagmuir model for a 1:1 binding.
Surface plasmon resonance (SPR) analysis was utilized to determine the physical interaction and binding affinity between rhCIRP and pattern-recognition receptors and MD2. […] The sensorgrams show association and dissociation of analyte at the indicated concentration passed over to the immobilized ligand on the sensor chip, indicated as analyte/ligand on top of each diagram. […] The region of CIRP that binds to MD2 was determined via the synthesis of 32 oligopeptides (15-mer) covering the entire human CIRP sequence. The oligopeptides were passed over immobilized rhMD2 on the BIAcore instrument, followed by subsequent performance of a series of SPR analyses. Three oligopeptides with high binding affinity were indicated. […] Three oligopeptides, aa 101-115, 106-120 (C22), and 111-125 (C23) bound to rhMD2 with high affinity (FIG. 14 and FIG. 19).

TLR2 = biological target: T4, TLR2 (Homo sapiens, UniProt O60603); assay: SPR binding to TLR2
T4 construct: Glu21-Leu590); 10-His (C); purchased R&D Systems; host or cells: mouse myeloma NS0 cell line
Experimental: as §3, §4

T2 sequence (Q15109 23-344): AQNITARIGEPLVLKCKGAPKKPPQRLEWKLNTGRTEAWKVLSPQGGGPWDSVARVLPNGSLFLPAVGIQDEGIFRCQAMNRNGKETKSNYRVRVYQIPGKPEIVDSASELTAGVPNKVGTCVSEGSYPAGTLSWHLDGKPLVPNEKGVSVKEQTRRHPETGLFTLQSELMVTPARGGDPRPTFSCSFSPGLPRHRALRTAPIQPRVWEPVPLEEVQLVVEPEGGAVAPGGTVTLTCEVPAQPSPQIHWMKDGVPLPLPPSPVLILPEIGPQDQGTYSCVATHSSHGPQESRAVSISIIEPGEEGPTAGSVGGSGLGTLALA
T4 sequence (O60603 21-590): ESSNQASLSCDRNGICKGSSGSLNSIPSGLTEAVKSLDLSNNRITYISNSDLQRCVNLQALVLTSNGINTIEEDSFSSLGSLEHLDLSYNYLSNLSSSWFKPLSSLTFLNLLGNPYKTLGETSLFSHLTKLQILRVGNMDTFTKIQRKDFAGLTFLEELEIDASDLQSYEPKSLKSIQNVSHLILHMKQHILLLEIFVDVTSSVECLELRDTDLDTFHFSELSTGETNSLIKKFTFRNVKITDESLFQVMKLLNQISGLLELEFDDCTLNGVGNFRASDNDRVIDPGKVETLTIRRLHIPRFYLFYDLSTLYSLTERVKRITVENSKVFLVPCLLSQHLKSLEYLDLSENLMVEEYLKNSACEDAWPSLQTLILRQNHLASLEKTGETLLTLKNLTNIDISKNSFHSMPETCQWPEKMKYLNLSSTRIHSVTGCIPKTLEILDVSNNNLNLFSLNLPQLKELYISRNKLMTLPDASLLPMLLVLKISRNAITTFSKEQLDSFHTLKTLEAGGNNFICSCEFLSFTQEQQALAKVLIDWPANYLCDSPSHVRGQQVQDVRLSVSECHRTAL
TLR4/MD2 complex, sequence (O00206 24-631 limits assumed, one chain of several): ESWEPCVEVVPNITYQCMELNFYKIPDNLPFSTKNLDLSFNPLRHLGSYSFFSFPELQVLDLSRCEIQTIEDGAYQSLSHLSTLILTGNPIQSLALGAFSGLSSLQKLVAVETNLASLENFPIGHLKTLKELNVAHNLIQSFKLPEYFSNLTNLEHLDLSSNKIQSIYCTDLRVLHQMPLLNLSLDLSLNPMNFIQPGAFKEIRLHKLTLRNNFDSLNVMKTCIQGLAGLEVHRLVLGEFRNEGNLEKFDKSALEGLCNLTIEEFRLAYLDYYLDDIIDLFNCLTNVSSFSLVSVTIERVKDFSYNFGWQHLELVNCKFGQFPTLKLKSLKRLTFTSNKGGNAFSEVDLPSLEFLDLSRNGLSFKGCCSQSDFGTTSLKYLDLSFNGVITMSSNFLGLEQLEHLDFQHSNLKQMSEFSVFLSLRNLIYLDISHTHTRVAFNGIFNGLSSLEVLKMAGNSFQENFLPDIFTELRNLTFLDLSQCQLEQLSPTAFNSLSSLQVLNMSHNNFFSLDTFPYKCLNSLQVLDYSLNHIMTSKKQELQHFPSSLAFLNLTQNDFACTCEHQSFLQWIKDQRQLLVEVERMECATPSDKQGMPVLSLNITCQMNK
TLR4, sequence (O00206 24-631 limits assumed, species assumed): as the sequence (O00206 24-631 limits assumed, one chain of several) above

In the case of “HMGB1: high mobility group box 1 protein, proinflammatory cytokine; literature binding data”, the “binding to TLR4 (in words)” value (TLR4) is listed as “did not bind to TLR4”, the Kd (MD2) is listed as 8 nM and the Kd (TLR4/MD2 complex) is listed as 1500 nM.

In the case of Polymyxin B, the “inhibition of LPS-induced TNF-α release” value [1] is reported as 84% and the “effect on rmCIRP-induced TNF-α production” value [2] is reported as “did not interfere”.

B1: rhCIRP: recombinant human CIRP, full length, C-terminal DDK tag, from HEK293 cells (Origene) (protein)
chain: MASDEGKLFVGGLSFDTNEQSLEQVFSKYGQISEVVVVKDRETQRSRGFGFVTFENIDDAKDAMMAMNGKSVDGRQIRVDQAGKSSDNRSRGYRGGSAGGRGFFRGGRGRGRGFSRGGGDRGYGGNRFESRSGGYGGSRDYYSSRSQSGGYSDRSSGGSYRDSYDSYATHNE
modifications: left off: small tags and cut ends
With B1 the “activity in stimulating TNF-α release from differentiated THP-1 cells” value (THP-1 cells) was “comparable activity to rmCIRP”, the “KD with RAGE” value (RAGE) was “in the nM range” and the Kd (rhMD2) was 302 nM. For the same molecule, the “KD with TLR2” value (TLR2) was “in the nM range”.

Source: US9957295B2, “Peptides inhibiting cold-inducible RNA binding protein activity” (The Feinstein Institute for Medical Research, priority 2013, dated 2018)
